From patent publication US20210063414A1, “METHODS FOR PREVENTING AND/OR TREATING BONE LOSS CONDITIONS BY MODULATING IRISIN” (Dana-Farber Cancer Institute, Inc., priority 2018, published 2021)

Experiments:
Assay in all cases: Crosslinking/co-immunoprecipitation/mass spectrometry (TMT quantitative proteomics) to identify irisin receptors
Type in all cases: binding
[1] = biological target: T1, MLO-Y4 cell surface proteins (Mus musculus, UniProt E9Q0C6); details: co-precipitated protein Gm14569 (E9Q0C6_MOUSE)
T1 construct: endogenous in cells; host or cells: MLO-Y4
How it was run: (§1)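 Mouse MLO-Y4 cells were switched to serum-free FreeStyle medium for 4 h, chilled, then exposed to 10 nM His-tagged irisin (or adipsin as control) for 20 min. Cells were crosslinked with 1.5 mM DTSSP (30 min, ice), and bound proteins were pulled down on Ni-NTA and eluted with 250 mM imidazole. Eluates were separated by SDS-PAGE, trypsin-digested in gel, TMT 6-plex labelled and quantified by MS3-based LC-MS/MS on an Orbitrap Fusion Lumos.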

[2] = biological target: T2, MLO-Y4 cell surface proteins (Mus musculus, UniProt Q791V5); details: co-precipitated protein Mteh2 (MTCH2_MOUSE)
T2 construct: endogenous in cells; host or cells: MLO-Y4
T2 sequence (Q791V5 1-303): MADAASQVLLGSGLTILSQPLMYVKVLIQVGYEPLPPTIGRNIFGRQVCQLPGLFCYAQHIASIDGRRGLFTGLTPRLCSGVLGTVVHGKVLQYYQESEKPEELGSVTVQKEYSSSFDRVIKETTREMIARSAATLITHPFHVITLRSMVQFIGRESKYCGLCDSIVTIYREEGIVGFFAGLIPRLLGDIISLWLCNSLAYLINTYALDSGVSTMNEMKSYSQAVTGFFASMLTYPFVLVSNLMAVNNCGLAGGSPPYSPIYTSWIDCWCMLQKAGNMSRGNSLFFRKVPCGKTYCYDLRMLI
How it was run: as §1

[3] = biological target: T3, MLO-Y4 cell surface proteins (Mus musculus, UniProt P41216); details: co-precipitated protein Acsl1 (ACSL1_MOUSE)
T3 construct: endogenous in cells; host or cells: MLO-Y4
T3 sequence (P41216 1-699): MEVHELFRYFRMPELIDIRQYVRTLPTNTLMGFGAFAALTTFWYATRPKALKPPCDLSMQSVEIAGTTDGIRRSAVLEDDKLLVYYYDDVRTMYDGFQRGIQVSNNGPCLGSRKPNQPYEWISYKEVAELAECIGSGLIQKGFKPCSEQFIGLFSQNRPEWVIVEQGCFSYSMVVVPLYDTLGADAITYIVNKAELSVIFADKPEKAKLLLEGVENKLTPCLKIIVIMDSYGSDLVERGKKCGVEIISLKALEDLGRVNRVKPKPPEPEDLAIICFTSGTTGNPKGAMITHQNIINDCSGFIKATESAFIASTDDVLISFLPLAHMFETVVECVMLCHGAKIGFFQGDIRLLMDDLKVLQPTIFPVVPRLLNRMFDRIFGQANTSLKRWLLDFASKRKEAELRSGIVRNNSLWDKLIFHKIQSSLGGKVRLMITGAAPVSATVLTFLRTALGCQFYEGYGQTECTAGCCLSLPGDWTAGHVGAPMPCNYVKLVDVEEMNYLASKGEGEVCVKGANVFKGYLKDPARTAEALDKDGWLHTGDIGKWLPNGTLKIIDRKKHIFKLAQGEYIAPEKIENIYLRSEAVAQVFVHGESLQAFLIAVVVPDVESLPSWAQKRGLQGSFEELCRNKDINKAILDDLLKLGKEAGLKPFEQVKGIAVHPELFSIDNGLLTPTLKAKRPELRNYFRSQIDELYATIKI
How it was run: as §1

[4] = biological target: T4, MLO-Y4 cell surface proteins (Mus musculus, UniProt E9Q557); details: co-precipitated protein Dsp (DESP_MOUSE)
T4 construct: endogenous in cells; host or cells: MLO-Y4
How it was run: as §1

T1 sequence (E9Q0C6 whole entry): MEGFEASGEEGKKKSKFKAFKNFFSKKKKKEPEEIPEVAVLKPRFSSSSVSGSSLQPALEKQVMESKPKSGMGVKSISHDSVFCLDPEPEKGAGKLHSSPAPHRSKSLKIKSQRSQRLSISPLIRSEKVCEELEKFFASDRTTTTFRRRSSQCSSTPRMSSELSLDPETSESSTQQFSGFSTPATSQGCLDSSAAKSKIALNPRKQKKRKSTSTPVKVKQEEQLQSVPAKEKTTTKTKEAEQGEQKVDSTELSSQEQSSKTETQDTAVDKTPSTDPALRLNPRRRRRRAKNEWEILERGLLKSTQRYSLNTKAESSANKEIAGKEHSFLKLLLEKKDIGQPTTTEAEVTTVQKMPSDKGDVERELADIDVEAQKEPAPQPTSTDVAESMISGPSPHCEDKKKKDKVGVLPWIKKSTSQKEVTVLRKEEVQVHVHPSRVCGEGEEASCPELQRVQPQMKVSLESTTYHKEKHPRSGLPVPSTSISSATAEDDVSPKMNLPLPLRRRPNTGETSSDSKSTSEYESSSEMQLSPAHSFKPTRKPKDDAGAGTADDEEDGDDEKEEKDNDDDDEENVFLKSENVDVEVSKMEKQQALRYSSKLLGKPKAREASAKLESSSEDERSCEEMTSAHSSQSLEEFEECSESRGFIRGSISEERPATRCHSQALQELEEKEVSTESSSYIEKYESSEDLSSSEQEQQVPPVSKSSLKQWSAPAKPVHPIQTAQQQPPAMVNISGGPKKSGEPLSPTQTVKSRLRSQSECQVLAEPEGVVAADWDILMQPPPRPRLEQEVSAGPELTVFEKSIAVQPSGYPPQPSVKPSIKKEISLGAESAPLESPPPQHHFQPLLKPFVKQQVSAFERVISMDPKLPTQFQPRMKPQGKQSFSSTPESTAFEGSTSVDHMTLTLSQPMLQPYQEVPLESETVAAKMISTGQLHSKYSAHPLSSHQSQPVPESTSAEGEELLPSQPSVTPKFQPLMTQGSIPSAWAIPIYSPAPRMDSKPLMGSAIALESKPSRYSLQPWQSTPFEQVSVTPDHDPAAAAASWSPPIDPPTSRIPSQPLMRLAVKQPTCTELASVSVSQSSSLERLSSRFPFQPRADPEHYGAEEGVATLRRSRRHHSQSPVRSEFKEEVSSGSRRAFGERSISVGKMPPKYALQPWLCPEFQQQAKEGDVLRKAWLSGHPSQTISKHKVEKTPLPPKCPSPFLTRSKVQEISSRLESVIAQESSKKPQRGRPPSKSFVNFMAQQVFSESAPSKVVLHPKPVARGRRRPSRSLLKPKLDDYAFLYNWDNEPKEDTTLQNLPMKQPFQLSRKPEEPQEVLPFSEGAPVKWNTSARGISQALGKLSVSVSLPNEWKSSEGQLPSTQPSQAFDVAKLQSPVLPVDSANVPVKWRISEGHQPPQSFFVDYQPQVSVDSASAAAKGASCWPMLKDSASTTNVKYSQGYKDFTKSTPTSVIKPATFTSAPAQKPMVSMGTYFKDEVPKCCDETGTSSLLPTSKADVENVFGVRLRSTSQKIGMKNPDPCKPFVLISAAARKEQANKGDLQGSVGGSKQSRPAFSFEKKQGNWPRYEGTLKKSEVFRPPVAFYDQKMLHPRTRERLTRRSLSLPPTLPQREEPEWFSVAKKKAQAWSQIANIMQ
T4 sequence (E9Q557 whole entry): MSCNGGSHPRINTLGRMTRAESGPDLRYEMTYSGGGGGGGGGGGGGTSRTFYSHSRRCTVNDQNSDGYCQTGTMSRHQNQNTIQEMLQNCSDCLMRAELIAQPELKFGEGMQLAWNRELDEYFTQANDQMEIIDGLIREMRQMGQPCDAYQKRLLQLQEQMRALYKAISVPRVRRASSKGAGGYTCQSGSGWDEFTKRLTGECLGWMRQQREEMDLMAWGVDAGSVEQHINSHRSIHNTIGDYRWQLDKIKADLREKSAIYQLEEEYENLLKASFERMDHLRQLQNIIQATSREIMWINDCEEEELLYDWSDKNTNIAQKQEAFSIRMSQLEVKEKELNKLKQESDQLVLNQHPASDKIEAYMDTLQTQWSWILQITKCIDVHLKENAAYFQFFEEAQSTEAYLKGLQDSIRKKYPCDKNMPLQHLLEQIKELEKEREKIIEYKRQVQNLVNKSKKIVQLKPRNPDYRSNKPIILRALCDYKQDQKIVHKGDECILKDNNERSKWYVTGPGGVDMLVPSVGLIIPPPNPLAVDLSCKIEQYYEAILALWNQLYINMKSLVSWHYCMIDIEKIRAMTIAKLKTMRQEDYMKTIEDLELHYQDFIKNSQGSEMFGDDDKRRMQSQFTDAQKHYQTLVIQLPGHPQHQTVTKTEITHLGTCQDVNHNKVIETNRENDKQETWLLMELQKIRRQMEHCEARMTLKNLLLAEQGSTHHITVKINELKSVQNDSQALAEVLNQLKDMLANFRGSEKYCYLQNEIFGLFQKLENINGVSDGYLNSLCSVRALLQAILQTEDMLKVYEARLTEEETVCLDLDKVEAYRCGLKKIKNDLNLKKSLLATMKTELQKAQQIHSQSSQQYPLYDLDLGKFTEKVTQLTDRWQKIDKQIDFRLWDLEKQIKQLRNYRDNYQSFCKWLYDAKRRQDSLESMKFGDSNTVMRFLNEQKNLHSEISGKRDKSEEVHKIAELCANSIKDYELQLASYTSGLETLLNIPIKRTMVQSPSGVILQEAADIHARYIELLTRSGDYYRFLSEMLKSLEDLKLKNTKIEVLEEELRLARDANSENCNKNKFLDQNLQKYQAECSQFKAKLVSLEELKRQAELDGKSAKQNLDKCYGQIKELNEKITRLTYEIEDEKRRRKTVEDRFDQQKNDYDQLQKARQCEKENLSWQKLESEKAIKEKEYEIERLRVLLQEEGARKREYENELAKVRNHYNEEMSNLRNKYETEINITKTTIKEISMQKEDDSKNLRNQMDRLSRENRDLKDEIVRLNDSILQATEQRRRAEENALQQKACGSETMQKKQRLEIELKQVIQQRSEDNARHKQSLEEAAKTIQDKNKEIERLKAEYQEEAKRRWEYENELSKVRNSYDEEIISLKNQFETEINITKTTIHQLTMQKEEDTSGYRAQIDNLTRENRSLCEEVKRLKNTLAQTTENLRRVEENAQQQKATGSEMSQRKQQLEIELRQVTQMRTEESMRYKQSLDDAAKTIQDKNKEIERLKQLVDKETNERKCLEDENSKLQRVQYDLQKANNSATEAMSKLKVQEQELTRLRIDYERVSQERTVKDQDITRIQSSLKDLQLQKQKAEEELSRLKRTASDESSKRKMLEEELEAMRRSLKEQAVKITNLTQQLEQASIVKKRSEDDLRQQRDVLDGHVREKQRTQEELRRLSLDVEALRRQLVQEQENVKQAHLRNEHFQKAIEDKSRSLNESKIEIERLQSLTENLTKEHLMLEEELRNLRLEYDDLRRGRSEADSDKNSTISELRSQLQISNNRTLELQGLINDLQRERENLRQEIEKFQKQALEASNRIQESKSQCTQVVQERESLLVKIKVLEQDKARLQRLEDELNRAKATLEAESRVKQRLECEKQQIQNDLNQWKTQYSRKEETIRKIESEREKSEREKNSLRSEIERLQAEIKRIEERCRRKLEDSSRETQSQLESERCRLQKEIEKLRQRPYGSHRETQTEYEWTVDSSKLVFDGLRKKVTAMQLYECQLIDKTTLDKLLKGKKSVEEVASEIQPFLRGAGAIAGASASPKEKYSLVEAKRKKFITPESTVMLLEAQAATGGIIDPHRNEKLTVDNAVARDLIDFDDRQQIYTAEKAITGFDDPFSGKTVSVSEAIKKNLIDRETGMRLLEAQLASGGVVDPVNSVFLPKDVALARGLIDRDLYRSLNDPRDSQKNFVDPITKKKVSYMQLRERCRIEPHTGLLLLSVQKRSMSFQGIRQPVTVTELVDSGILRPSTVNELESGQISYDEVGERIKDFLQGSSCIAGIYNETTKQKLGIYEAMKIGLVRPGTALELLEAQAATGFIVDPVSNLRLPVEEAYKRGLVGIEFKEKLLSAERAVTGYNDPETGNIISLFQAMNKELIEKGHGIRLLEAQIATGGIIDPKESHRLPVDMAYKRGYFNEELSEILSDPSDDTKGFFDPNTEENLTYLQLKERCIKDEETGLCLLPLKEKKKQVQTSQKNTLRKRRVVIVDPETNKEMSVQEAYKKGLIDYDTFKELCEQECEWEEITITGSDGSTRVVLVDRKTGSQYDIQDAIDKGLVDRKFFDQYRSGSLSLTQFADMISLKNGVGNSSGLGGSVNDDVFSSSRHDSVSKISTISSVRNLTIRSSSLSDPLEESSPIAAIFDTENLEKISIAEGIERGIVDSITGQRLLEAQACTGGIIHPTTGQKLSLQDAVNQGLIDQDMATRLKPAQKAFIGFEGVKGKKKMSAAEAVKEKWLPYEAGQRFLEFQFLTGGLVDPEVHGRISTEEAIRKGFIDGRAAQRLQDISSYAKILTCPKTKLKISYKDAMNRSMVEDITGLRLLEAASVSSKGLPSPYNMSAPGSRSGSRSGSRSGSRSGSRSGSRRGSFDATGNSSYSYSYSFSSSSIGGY

TMT signal-to-noise ratio [1]: 224.172 | TMT signal-to-noise ratio [2]: 101.527 | TMT signal-to-noise ratio [3]: 361.33 | TMT signal-to-noise ratio [4]: 79.7679
Substance: adipsin
